Test results as given in patent publication US20210221869A1.

Biological target: M22 antibody (thyrotropin receptor autoantibody)
Experiment: M22-blocking ELISA (KRONUS kit): fusion protein in 2-fold dilutions pre-incubated with peroxidase-M22, then added to the kit plate

IC50: 3 mg/L
Substance: TSHR 21-282 D43A (N01) (Fc fusion)
